We go through one molecule from patent US20040132029, “Method of error reduction in nucleic acid populations” (published 2004).

The data set concerns the target T1, MutS (MutSt) (UniProt Q56215 Q56215:1-811).
T1 sequence: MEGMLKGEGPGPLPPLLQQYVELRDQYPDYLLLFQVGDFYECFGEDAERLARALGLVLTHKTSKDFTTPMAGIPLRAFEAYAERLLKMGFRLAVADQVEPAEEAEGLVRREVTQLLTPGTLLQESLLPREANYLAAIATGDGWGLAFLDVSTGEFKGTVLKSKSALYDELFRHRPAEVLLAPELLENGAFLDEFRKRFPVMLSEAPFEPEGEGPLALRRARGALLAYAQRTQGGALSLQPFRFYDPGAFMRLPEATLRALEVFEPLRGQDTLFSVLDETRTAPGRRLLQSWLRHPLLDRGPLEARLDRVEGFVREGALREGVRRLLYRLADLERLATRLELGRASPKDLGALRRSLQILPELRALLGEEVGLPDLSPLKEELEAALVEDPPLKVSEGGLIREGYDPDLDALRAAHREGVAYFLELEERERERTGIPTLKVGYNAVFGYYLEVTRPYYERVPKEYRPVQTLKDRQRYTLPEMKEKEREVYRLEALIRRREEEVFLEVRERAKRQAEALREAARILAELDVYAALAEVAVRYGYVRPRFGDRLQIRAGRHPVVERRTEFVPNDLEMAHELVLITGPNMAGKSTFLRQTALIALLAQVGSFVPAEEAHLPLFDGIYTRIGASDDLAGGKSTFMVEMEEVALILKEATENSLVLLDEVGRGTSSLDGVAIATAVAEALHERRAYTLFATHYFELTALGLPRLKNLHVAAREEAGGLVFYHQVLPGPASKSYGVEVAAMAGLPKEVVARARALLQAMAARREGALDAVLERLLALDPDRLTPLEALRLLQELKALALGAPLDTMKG
The data set is described as follows: EMSA; 10 mM Tris-HCl pH 8.8, 5 mM MgCl2, 0.1% Triton X-100, 37 C; preferred over wt; tenfold unlabeled del20 competes, proteinase K removes shift. Particulars: tags: Epicenter Technologies, Madison, Wis; label: 5' fluorescein on anti-sense strand; single unpaired base (deletion at position 20 of anti-sense). How it is done:
In a typical reaction 80 pmols of unlabeled sense strand were mixed with 40 pmols of Cy5 labeled anti-sense strand and 40 pmols of fluorescein labeled mutant strand (del20 or C>A) in 1× Muts buffer ( 10 mM Tris-HCl pH 8.8, 5 mM MgCl₂, 0.1% TritonX-100). The mixture was annealed in a thermocycler after being first denatured at 95° C. for 5 minutes. The mixture was then cooled at 0.2° C./sec until temperature reaches 25° C. The duplex DNA thus created is illustrated in FIG. 5.
2 or 6 μg of MutSₜ protein (Epicenter Technologies, Madison, Wis.) was added to the annealed oligonucleotides. The mixture was then incubated at 37° C. for 30 minutes.
(Mobility shift assays separate free from complexed probe on a gel.)

B1: GFPuv 351-390 del20 heteroduplex (dsDNA)
DNA 1: GTTAATGGGCACAAATTTTCTGTCAGTGGAGAGGGTGAAG
DNA 2: CTTCACCCTCTCCACTGACGAAAATTTGTGCCCATTAAC
B1: the binding result was “binds”.
